# B1: Tyrosine-protein phosphatase non-receptor type 11 (Homo sapiens), Q06124 (protein)
# chain: MTSRRWFHPNITGVEAENLLLTRGVDGSFLARPSKSNPGDFTLSVRRNGAVTHIKIQNTGDYYDLYGGEKFATLAELVQYYMEHHGQLKEKNGDVIELKYPLNCADPTSERWFHGHLSGKEAEKLLTEKGKHGSFLVRESQSHPGDFVLSVRTGDDKGESNDGKSKVTHVMIRCQELKYDVGGGERFDSLTDLVEHYKKNPMVETLGTVLQLKQPLNTTRINAAEIESRVRELSKLAETTDKVKQGFWEEFETLQQQECKLLYSRKEGQRQENKNKNRYKNILPFDHTRVVLHDGDPNEPVSDYINANIIMPEFETKCNNSKPKKSYIATQGCLQNTVNDFWRMVFQENSRVIVMTTKEVERGKSKCVKYWPDEYALKEYGVMRVRNVKESAAHDYTLRELKLSKVGQGNTERTVWQYHFRTWPDHGVPSDPGGVLDFLEEVHHKQESIMDAGPVVVHCSAGIGRTGTFIVIDILIDIIREKGVDCDIDVPKTIQMVRSQRSGMVQTEAQYRFIYMAVQHYIETLQRRIEEEQKSKRKGHEYTNIKYSLADQTSGDQSPLPPCTPTPPCAEMREDSARVYENVGLMQQQKSFR
# Legend:
# [1] = substrate: CC1(CN)CCN(c2cnc(Sc3cccc(Cl)c3Cl)c(N)n2)CC1; settings: Homo sapiens; filed as negative allosteric modulator; dose 0.2 µM
# [2] = substrate: CC1(CN)CCN(c2cnc(Sc3cccc(Cl)c3Cl)c(N)n2)CC1; settings: Homo sapiens; filed as negative allosteric modulator; dose 0.032 µM
# Description: Non-competitive inhibition of wild-type human SHP2 (1 to 535 residues) using DiFMUP as substrate assessed as Km at 0.032 uM measured by Lineweaver-Burk plot analysis
# [3] = substrate: CC1(CN)CCN(c2cnc(Sc3cccc(Cl)c3Cl)c(N)n2)CC1; settings: Homo sapiens; filed as negative allosteric modulator; dose 0.08 µM
# Description: Non-competitive inhibition of wild-type human SHP2 (1 to 535 residues) using DiFMUP as substrate assessed as Km at 0.08 uM measured by Lineweaver-Burk plot analysis
protein,measurement,setting,value
B1,Km,[1],142 µM
same,Km,[2],95.4 µM
same,Km,[3],103 µM

# — ChEMBL document CHEMBL5143569
